Assay results taken from publication PMC12153317 (mBio, 2025).

Biological target: HA head of A/American black duck/New Brunswick/00464/2010(H4N6) (Influenza A virus A/American black …, strain)
Assay: crystal structure
Details: both partners purified

B1: S8V1-157 Fab (crystallization) (Fab, V domains shown)
VH: EVQLVQSGAEVKKPGASVKVSCKVSGYRLTALSMHWVRQAPGKGLEWMGGFDPEEDETIYAQNFQGRVTLTEDTSTDTVYMELSSLRSEDTGVYYCATLMGANPFDYWGQGTLIIVSG
VL: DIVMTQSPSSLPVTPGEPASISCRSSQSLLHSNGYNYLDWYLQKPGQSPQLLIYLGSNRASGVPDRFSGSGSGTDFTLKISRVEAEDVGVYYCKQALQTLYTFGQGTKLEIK
notes: source: 293F, transient transfection, purified (TALON resin, Superdex 200)
**Q.** Does B1 bind?
**A.** binds
